Measurements: the nanobody polyreactivity screen of Harvey et al. (2022)

Assay: yeast display, Sf9 membrane polyspecificity reagent, FACS + sequencing; frameworks hold sequencing errors
Outline: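 Polyreactivity labels are assigned by the sorting gate from which each nanobody was recovered. The gates were low and high (top ~1%), set on anti-HA fluorescence for expression and streptavidin fluorescence for reagent binding. Before sorting, galactose-induced (36–48 hours) yeast display cells were stained for 1 hour at 4 °C with 10% biotinylated, detergent-solubilized Sf9 membrane reagent.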

QVQLVESGGGIVQAGGILRLTGAASVITNTSYAMGWYRQAPGKERELVAAISSSGVRTYYADSVKGRFTISRDNAKNTVYLQLNSLKPEDTAVYYCATRRRVLFGYDYWGQGTQVTVSS
polyreactivity (PSR sort gate): high polyreactivity

QVQLVESGGGLVQAGGSLRLSCAASGIILPYYAMGWYRQAPGKEREFVATISSDGTSTYYADSVKGRFTISRDNAKNTVYLQMNSLKPEDTAVYYCAARIRQNPGGDNSWGQGTQVTVSS
polyreactivity (PSR sort gate): low polyreactivity

QVQLVESGGGLVQAGGSLRLSCAASGSIIDVYAMGWYRQAPGKERELVAAISTSGGSTFYADSVKGRFTISRDHAKNTVYLQMNSLKPEDTAVYYCNAAKYPDQWYDEYNYWGQGTQVTVSS
polyreactivity (PSR sort gate): low polyreactivity

QVQLVESGGGLVQAGGSLRLSCAASGSTFYYYAMGWYRQAPGKERELVASISFSGGSTYYADSVKGRFTISRDNAKNTVYLQMNSLKPEDTAVYYCGYYYWGQGTQVTVSS
polyreactivity (PSR sort gate): low polyreactivity

QVQLVESGGGLVQAGGSLRLSCAASGSTFTRNTMGWYKQAPGKEREMVAAISRRGGRTDYADSVKGRFTISRDNAKNSVYLQMNSLKPEDTAVYYCAADPITVDQNPRYGYWGQGTQVTVSS
polyreactivity (PSR sort gate): high polyreactivity

QVQLVESGGGLVQAGGSLRLSCAASGRIFYYYAMGWYRQAPGKERELVAAINRSGGSTYYADSVKGRFTISRDNAKNTVYLQKNSLKPEDTAVYYCASYDYWGQGSQVTVSS
polyreactivity (PSR sort gate): high polyreactivity

QVQLVESGGGLVQAGGSLRLSCAASGSTFSWYTMGWYRQAPGKERELVAAITRDGSTYYADSVKGRFTISRDNAKNTVYLHMNSLKPEDTAVYYCAADLSYWRGGHSRNYWGQGTQVTVSS
polyreactivity (PSR sort gate): low polyreactivity

QVQLVESGGGLVQAGGSLRLSCAASGFTFPHYAMGRYRQAPGKERELVAAINGGDTRTYYADSVKGRFTSSRDNAKNTVYLQRNSLKPEDTAVYYCAADREAGGTRLSRDYYWGQGTQVTVSS
polyreactivity (PSR sort gate): high polyreactivity

QVQHEESGGGLVQAGGSLRLSCAASGSIFLWNAMGSYRQAPGKERELVASIGDSTYYADSVKGRFTISRDNAKNTVYLQMNSLKPEDTAVYYCKAEVLNYLVFGYQLCYDYWGQGTQVTVSS
polyreactivity (PSR sort gate): low polyreactivity

QVQLVESGGGLVQAGGSLRLSCAASGSIFTGYAMGWYRQAPGKERELVAAITYGSGRTYYADSVKGRFTISRDNAKNTVYLQMNSLKPEDTAVYYCAAKWSPYYYYIGYDYWGQGTQVTVSS
polyreactivity (PSR sort gate): low polyreactivity

QVQLVESGGGLVQAGGSLRLSCADSGRIFVRNAMGWYRPAPGKERELVADSTNGGSTNYADSVKGRFTISRDNAKNTVYLQRNSQKPEDTAVYYCAADTLGVYDGDYWGQGTQVTVSS
polyreactivity (PSR sort gate): low polyreactivity

QVQLEESGGGLLKEGGSLRLSCAASGRLFYGYTIGRSRQAPGKERELVAAISRNGGSTYYADSVKGRFTISRDNAKNTVYFHMNSLKTEDSAVYYCNAVFSRGYVIKPYDYWGQGTQVTVSS
polyreactivity (PSR sort gate): high polyreactivity

QVQLVESGGGLVQAGGSLRLSCAASGLTFQYKTMGRYRQAPGKEREFVAAITISGGTTYYADSVKGRFTISRDNAKTTVYLQMNSLKPEDTAVHYCAADFNSTERGTNMDYWGQGTQVTVSS
polyreactivity (PSR sort gate): low polyreactivity

QVQIVESGGGLVQAGGSLRLSCAASGRTFNRNAMGWYRQAPGKERELVAAISRGGGGTFYADSVKGRFTISRDNAKNTVYLQMNSLKPEDTAVYYCAKTLRGWHTIITDYDYWGQGTQVTVSS
polyreactivity (PSR sort gate): low polyreactivity

QVQLVESGGGLVQAGGRLRLSCAASGRIFYTYTMGWYRQAPGKERELVATITDGTRTNYADSVKVRFTISRDNAKITVYLQMNSLKHEDTAVYYCNAAGRWHDLYRINYDYWGQGTQVTVSS
polyreactivity (PSR sort gate): low polyreactivity

QVQLVESGGGLVQAGGRLRLSCAASGSTFRVYAMGWYRQAPGKERELFAAIRSGGGTNYADSVKGRFTISRDNAKNTVYLQMNSLKPEDTAVYYCAREAATDISPGYDYWGQGTQVTVSS
polyreactivity (PSR sort gate): low polyreactivity

QVQLVESGGGLVQAGGSLRLSCAASGRIFNVYDMGRYRQAPGKERELVAAISSGANTNYADSVKGRFTISRDNAKNTVYLQMNSLKPEDTAVYYCNTEQFYDYDYTFDYWGQGTQVTVSS
polyreactivity (PSR sort gate): low polyreactivity

QVHLVESGGGLVQAGGSLRLSCAASGRTFRSNAMGWYRQAPGKEREFVAAISGRGGITYYADSVKGRFTISRDNAKNTVYLQMNSLKPEDTAVYYCNRDVKYHDYVYVTAIKSPGYNYWGQGTQVTVSS
polyreactivity (PSR sort gate): low polyreactivity

QVQLVESGGGLVQAGGSLRLSCAASGRTLSYYARGWYRQAPGKERELVASIRRRTGSTYYAESVKGRFTISRDNAKNSVYLQMNSLTPEDTAVYYCAADLIYYGEYDYWGQGTQVTVSS
polyreactivity (PSR sort gate): high polyreactivity

QVQLVESGGGLVQAGGTLRLSCAASGSIWRYAMGWYRKAPGKERELVATIARRGGSTYYADSVKGRFTISRDNAKNTVYLLMNSLKPEDPAVYYCAAAESASSFRFDYWGQGTQVTVSS
polyreactivity (PSR sort gate): high polyreactivity

QVQLVESGGGLVQAGGSLRLSCADSGRTFEPYTMGWYRQAPGKERELVAAISWRGGSTYADSVKGRFTISRDNAKNTVYLQMNSLKPEDTAVYYCAAEPYWHLDSQYFGREYDYWGQGTQVTVSS
polyreactivity (PSR sort gate): low polyreactivity

QVQLVESGGGLVQARGSLRLSCAASGRNFADYAMGWYRQAPGKERELVAAIDWSDGSTKYADSVKGRFTISRDNAKNTVYLQINSLKPEDTAVYYCGADYWPRDGLGWWYDYWGQGTQVTVSS
polyreactivity (PSR sort gate): low polyreactivity

QVQLVESRGGLVQAGGSLRLSCAASGSIFGYYTMGWYRQAPGKDRELVAAISARGGRTYYADSVKGRFTISRDNAKNTVYLLMNSLKPEDTAVYYCAKRVYRRLYTGGQNPYDYWGQGTQVTVSS
polyreactivity (PSR sort gate): high polyreactivity

QVQLVESGGGLVQAGGSLRLSCAGSGSTFFEYAMGWYRQAPGKDREFVAGISWSGGITYYADSVKGRFTISRDNAKNTVYLQMNSLKPEDTAVYYCASAGGDWYGVDYWGQGTQVTVSS
polyreactivity (PSR sort gate): low polyreactivity

QVQLVESGGGLVQAGGSLRLSCAASGSTFGDYAMGWYRQAPGKERELVAAISARGASTYYADSVKGRFTISRDNAKNTVYLQMNSLKPEDTAVYYCAARYVSSGRRFDYCGQGTQVTVSS
polyreactivity (PSR sort gate): high polyreactivity

QVQLVESGGGLVQAGGSLRLSCAASGRTFWYNAMGWYSPAPGKERELLAVITKSGGSTYYADSVKGRFTISRDNAKNTVYLQMNSLKPEDTAVYYCAADTYVARSNYRYRGFDYWGQGTQVTVSS
polyreactivity (PSR sort gate): high polyreactivity

QVQLQESGGGLVQEGGSLRLSCAASGNISPPADMGWYRPAPGKERELVASIGTGGTTNYADSVKGRFTISRDNAKNTVYLQMNSLKPEDTAVYYCNVRYRSAGSRYGYWGQGTQVTVSS
polyreactivity (PSR sort gate): low polyreactivity

QVQRVESGGGLVQAGGSLRLSCPASGSTKFNAMGWNRQPPGKERELVATITANGDSTYYADSVKGRFTISRDNAKNTVYLQMNSLKPEDTAVYYCNADAYIRMDSWGQGTQVTVSS
polyreactivity (PSR sort gate): low polyreactivity

QVQLVESGGGLVQAGGSLRLSCAASGRIFTRNAMGWYRQAPGKERELVAAIRWSGDSTYYADSVKGRFTISRDNAKNTVYLQMNSLKPEDTAVYYCAADRQRSHRVGTKGHRVGYWGQGTQVTVSS
polyreactivity (PSR sort gate): high polyreactivity

QVQHVESGGGIVQAGGSLRLSCAASGLTFVYYAMGWYRQAPGTERELVAAISSGGRTYYADSVKGRFTISRDNAKKTVYLQMNSLKPDDTAVYYCAAYGGTHYTYRYDYWGQGTQVTVSS
polyreactivity (PSR sort gate): high polyreactivity

QVQLVESGGGLVQAGGSLRLSCAASGRTFYSYAMGWYRQAPGKERELVAAISYTGASTFYADSVKGRFTISRDKSKNTVYLQMNSLKPEDTAVYYCADRKVRFGVDYWGQGTQVTVSS
polyreactivity (PSR sort gate): high polyreactivity

QVQLVESGGGIVQAGGSLRLSCAASGSTFSKYAMGWYRQAPGNERELVAAISSRGGSTYYADSVKGRFTISRDNAKNTVYLQMNCLKPEDTAVYYCAAKFYAEYGYWGHGTQVTVSS
polyreactivity (PSR sort gate): high polyreactivity

QVQLVESGGGLVQAGCSLRLSCAASGFIFWLYAMGWYRQAPGKERELVASINWSGGDTYYADSVKGRFTISRDNAKNTVYLQMNSLKPEDTAVYYCNAIVLDSKSSFDYWGQGTQVTVSS
polyreactivity (PSR sort gate): low polyreactivity

QVQLVESGGGLVQAGGSLRLSCAASGSIFDNYAMGWYRQAPGKEREFDAGISWSGGSTRYADSVKGRFTISRDNAKNTVYLQMNSLKPEDTAVYYCNTGYGLVDFLYGYYYWGQGTQVTVSS
polyreactivity (PSR sort gate): low polyreactivity

QVQLVESGGGLVQAGGRLRLSCEASGNIFGYYAMGWSRQAPGKERELVAAITRSGSSTYYADSVKGRFTISRDNAKNNVFLQMNSLKPEDTAVYYCSADNFYQAYGYWGQGTQVTVSS
polyreactivity (PSR sort gate): low polyreactivity

QVQLVESGGGLVQAGGSLRLSCAASGIIFDDYAMGWYRQAPGKERELVAAISVSGGSTYYADSVKGRFTISRDNAKNTVYLQMNSLKPEDTAVYYCAARLIVGRFLRYDYWGQGTQVSVSS
polyreactivity (PSR sort gate): high polyreactivity

QVQLVESGGGLVQAGGSLRLSCAASGSTFSHNAMGWYREATGKERELVAAITAGGITYYADSVKGRFTISRDNAKNTVYLQMNSLKPEETAVYYCAGDFWPSGRGVAFDYWGQGTQVTVSS
polyreactivity (PSR sort gate): low polyreactivity

QVQHVESGGGLVQAGGSLRLSCAASGSIFRRNAMGRYRQAPGKVRELVAGISGGGSTYYADSVKGRFTISRDNAKNTVYLQMNSMKPEDTAVYYCATDKHYRSAGFDYWGQGTQVTVSS
polyreactivity (PSR sort gate): low polyreactivity

QVQLVESGGGLVQAGGSLRLSCAASGITFTSYVMGWYRQAPGKERELVAAIRWSGGRTYYADSVKGRFTISRDNAKNTDYLQMNTLKPAATAVYYCNRVTRSHVDYWGQGTQVTVSS
polyreactivity (PSR sort gate): high polyreactivity

QVQLVESGGGLVQAGGSLRLSCAASGSIFYFYTMGWYRQAPGKERELVAAISGGGGSTYYADSVTGRFTISRDNAKNTVYLQMNSLKPEDTAVYYCAADGAGWLDYGYWGQGTQVTVSS
polyreactivity (PSR sort gate): low polyreactivity

QVQLVESGGGLVQAGGSLRLSSAASGSTFKYYAMGCYRQAPGKERELVAAITNDGSTSYADSVKGRFTISRDNAKNTVYLQMNSLTPEDTAVYYCNARSKYPSYFSSMGYWGQGTQVTVSS
polyreactivity (PSR sort gate): high polyreactivity

QVQLVESGGGLVQAGGSLRLSCAASGRTCYSYAMGWYRQAPGKVRALVAAITSSGSTNADSVKGRFTISRDNAKNTDYLQMNSLKPEDTAVYYCATRSYILGWRYDYWGQGTQVTVSS
polyreactivity (PSR sort gate): high polyreactivity

QVQLVETGGGLVQAGGSLRLSCAASGSIFGGYAMGWYRQAPGKERELVAGITRSGGSTYYADSVKGRFTISRDNAKNTVYLQMNSLKPEDTAVYYCAVEIQFYRSPRKVRSYDYWGQGTQVTVSS
polyreactivity (PSR sort gate): low polyreactivity
